Measurements as given in patent US20200297837A1.
Where two headings read alike, the source gives them in different places.

What was measured:
[1] = target: T1, HLA-E*01033 on the HLA-E*01033-transfected derivative of the K562 cell line (human), P13747
[2] = target: T1, HLA-E*01033 on the …; assay: HLA-E stabilization assay on K562/HLA-E cells, overnight 26 C, anti-HLA-E mAb staining, flow cytometry (without peptide: 1400)

Binder: PEIVIYDYM (modifications not checked) [HIV-1 Pol derived peptide … (SEQ ID NO: 16)]
- MFI [1]: 7320 MFI

Binder: TALSEGATP (modifications not checked) [HIV-1 Gag derived peptide … (SEQ ID NO: 3)]
- MFI [2]: 8530 MFI

Binder: RIRTWKSLV (modifications not checked) [HIV-1 Pol derived peptide … (SEQ ID NO: 17)]
- MFI [2]: 6580 MFI

Binder: VMATRRNVL (modifications not checked) [MBt derived peptide … (SEQ ID NO: 15)]
- MFI [1]: 7520 MFI

Binder: RMYSPVSIL (modifications not checked) [HIV-1 Gag derived peptide … (SEQ ID NO: 1)]
- MFI [2]: 8240 MFI
